Each block holds one binder with its values, some of them ahead of it.
Legend:
Experiment in all cases: cross-linking; BS3 (unlabeled, or 50:50 with 2H12-labeled BS3) on the purified native holoenzyme; 150 mM NaPO4, 150 mM KOAc, pH 7.5, 5% glycerol, 2 mM DTT; procedure A 2.7 mM reagent 120 min on ice; trypsin digest, LC-MS/MS, Protein Prospector
Settings in all cases: both partners purified
[1] = molecular target: T1, Med14 (Rgr1), Mediator subunit (S. cerevisiae, UniProt P19263 1-1082)
T1 construct: Med14 (Rgr1), S. cerevisiae, endogenous, residues 1-1082 spoken of; source: endogenous, S. cerevisiae CB010 double-tagged strain; within the purified native holoenzyme
T1 sequence (looked up): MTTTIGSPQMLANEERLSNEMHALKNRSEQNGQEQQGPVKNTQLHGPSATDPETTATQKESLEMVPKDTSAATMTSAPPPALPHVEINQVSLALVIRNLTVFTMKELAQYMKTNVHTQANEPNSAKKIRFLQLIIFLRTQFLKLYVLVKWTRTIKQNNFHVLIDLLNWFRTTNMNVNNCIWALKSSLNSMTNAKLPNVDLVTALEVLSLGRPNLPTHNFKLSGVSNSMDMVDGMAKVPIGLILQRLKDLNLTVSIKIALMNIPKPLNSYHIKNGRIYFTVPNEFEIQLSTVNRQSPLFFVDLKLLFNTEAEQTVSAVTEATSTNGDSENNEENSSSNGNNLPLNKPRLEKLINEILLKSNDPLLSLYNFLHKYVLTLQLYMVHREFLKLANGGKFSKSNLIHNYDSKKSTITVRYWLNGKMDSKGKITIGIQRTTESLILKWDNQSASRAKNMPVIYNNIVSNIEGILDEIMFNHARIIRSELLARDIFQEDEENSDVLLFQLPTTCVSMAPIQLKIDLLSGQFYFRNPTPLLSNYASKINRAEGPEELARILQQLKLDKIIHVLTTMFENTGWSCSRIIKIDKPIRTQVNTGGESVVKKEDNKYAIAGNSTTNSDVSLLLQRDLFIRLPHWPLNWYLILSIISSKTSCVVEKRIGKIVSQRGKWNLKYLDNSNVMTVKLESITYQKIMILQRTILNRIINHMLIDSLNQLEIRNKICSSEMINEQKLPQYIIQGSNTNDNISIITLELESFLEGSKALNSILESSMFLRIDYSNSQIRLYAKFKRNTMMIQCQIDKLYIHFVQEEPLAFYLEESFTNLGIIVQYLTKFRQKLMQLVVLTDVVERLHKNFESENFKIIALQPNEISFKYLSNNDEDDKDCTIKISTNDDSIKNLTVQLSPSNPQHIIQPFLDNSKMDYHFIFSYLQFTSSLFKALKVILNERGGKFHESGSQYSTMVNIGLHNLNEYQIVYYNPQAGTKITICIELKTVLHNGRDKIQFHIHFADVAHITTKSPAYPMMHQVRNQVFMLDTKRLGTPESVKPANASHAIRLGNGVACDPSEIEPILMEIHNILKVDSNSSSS

[2] = molecular target: T2, Med1, Mediator Middle module subunit (S. cerevisiae, UniProt Q12321 1-566)
T2 construct: Med1, S. cerevisiae, endogenous; source: endogenous, S. cerevisiae CB010 double-tagged strain; within the purified native holoenzyme
T2 sequence (looked up): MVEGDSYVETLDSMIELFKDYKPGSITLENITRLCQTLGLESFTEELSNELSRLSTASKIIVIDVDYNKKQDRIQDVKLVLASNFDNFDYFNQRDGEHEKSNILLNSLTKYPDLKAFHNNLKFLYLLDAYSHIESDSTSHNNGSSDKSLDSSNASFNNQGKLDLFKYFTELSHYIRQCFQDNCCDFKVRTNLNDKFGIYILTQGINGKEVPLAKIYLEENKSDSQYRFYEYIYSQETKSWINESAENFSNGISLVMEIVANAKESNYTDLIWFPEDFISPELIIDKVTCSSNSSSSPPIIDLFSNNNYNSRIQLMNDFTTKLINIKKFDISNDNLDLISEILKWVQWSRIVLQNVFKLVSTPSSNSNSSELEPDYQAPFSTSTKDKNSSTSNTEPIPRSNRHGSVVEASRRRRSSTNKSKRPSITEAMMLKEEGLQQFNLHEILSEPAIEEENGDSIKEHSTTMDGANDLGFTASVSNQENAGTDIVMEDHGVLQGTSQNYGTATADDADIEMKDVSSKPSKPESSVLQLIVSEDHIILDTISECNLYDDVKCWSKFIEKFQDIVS

[3] = molecular target: T3, Med5 (Nut1), Mediator Tail module subunit (S. cerevisiae, UniProt P53114 1-1132)
T3 construct: Med5 (Nut1), S. cerevisiae, endogenous; source: endogenous, S. cerevisiae CB010 double-tagged strain; within the purified native holoenzyme
T3 sequence (looked up): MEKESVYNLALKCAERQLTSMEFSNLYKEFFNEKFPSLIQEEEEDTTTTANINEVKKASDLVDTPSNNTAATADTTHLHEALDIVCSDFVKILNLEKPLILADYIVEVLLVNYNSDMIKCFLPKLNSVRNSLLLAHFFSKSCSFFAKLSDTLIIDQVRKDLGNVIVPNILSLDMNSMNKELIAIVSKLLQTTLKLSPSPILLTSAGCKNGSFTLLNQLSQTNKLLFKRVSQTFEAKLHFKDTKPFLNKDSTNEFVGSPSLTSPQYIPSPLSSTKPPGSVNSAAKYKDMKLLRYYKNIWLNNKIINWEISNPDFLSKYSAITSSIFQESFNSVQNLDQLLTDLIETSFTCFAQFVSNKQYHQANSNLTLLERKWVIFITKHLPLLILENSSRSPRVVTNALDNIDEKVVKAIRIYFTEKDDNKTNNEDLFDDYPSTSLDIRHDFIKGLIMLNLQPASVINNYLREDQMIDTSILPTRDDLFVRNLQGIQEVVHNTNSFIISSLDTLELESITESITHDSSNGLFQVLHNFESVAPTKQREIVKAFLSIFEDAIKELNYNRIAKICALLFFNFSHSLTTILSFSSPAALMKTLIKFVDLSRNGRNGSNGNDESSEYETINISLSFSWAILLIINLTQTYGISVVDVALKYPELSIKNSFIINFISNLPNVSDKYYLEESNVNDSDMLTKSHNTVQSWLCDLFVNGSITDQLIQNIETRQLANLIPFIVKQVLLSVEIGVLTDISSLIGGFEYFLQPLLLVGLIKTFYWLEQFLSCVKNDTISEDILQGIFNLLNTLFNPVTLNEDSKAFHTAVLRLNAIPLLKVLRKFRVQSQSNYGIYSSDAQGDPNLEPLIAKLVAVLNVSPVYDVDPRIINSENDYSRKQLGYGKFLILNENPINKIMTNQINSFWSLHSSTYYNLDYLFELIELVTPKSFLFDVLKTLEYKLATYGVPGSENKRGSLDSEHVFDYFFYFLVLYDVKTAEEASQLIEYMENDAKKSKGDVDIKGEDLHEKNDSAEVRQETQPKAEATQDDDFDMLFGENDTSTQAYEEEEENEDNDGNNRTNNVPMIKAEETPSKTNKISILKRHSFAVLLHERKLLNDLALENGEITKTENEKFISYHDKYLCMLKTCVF

B1: Med10 (Nut2), Mediator Middle module subunit (natural protein, S. cerevisiae, UniProt Q06213 1-157, looked up)
chain: MNGNSTNNEQLQQELATTQDQVASIIESFVELGVSIYDFPGTPEATKGMITNLQRNVDRLYKLNVRSNDPQSSLSKVDIPLEVVQYIEDGRNPDIYTREFVEAIRRSNQYQRGKMHGLKQLRDSLADKIVDEFPELKEPVEDIIKRTSPIDNVSNTH
notes: Med10 (Nut2), S. cerevisiae, endogenous; source: endogenous, S. cerevisiae CB010 double-tagged strain; within the purified native holoenzyme
binding result [1]: binds

B2: Med17 (Srb4), Mediator Head module subunit (natural protein, S. cerevisiae, UniProt P32569 1-687, looked up)
chain: MTTEDPDSNHLSSETGIKLALDPNLITLALSSNPNSSLHSPTSDEPVPESAGKADTSIRLEGDELENKTKKDNDKNLKFLKNKDSLVSNPHEIYGSMPLEQLIPIILRQRGPGFKFVDLNEKELQNEIKQLGSDSSDGHNSEKKDTDGADENVQIGEDFMEVDYEDKDNPVDSRNETDHKTNENGETDDNIETVMTQEQFVKRRRDMLEHINLAMNESSLALEFVSLLLSSVKESTGMSSMSPFLRKVVKPSSLNSDKIPYVAPTKKEYIELDILNKGWKLQSLNESKDLLRASFNKLSSILQNEHDYWNKIMQSISNKDVIFKIRDRTSGQKLLAIKYGYEDSGSTYKHDRGIANIRNNIESQNLDLIPHSSSVFKGTDFVHSVKKFLRVRIFTKIESEDDYILSGESVMDRDSESEEAETKDIRKQIQLLKKIIFEKELMYQIKKECALLISYGVSIENENKVIIELPNEKFEIELLSLDDDSIVNHEQDLPKINDKRANLMLVMLRLLLVVIFKKTLRSRISSPHGLINLNVDDDILIIRPILGKVRFANYKLLLKKIIKDYVLDIVPGSSITETEVEREQPQENKNIDDENITKLNKEIRAFDKLLNIPRRELKINLPLTEHKSPNLSLMLESPNYCNALIHIKFSAGTEANAVSFDTTFSDFKEVEDFLHFIVAEYIQQKKV
notes: Med17 (Srb4), S. cerevisiae, endogenous, residues 1-687 spoken of; cross-linking was done after cleavage; also called Med17p; source: endogenous, S. cerevisiae CB010 double-tagged strain; within the purified native holoenzyme; not shown: TAP, N-terminal, cleaved
binding result [1]: binds

Further lines, results first:

binding result [2]: binds
binding result [1]: binds
B3: Med4, Mediator Middle module subunit (natural protein, S. cerevisiae, UniProt Q12343 1-284, looked up)
chain: MSVQDTKAVEFSMGHIRSSSVSLVAEATSNTNSEDKLSKVQLYEDLCRYEDTLSKLVESVDRFKPNLDIAKDLIRTDEALFENVKLLAEYDNIYRNLQKIDKDSEELDSKTRKILEILNECHDELKALPMLEQVEFEKNTILQQRSKINSTELLDYATKLSKFTKIPPTFDKGAVGPNNFIWPAEDALRRGMLAMASLHSKELTRIPGEEVEETEVPTVPPSQSEEQKGQMAKKEGTPKTDSFIFDGTAKEVGDEADNTKDKEKEENNDDALDLDLDLFDPDDF
notes: Med4, S. cerevisiae, endogenous; source: endogenous, S. cerevisiae CB010 double-tagged strain; within the purified native holoenzyme

binding result [1]: binds
binding result [3]: binds
B4: Med15 (Gal11), Mediator Tail module subunit (natural protein, S. cerevisiae, UniProt P19659 1-1081, looked up)
chain: MSAAPVQDKDTLSNAERAKNVNGLLQVLMDINTLNGGSSDTADKIRIHAKNFEAALFAKSSSKKEYMDSMNEKVAVMRNTYNTRKNAVTAAAANNNIKPVEQHHINNLKNSGNSANNMNVNMNLNPQMFLNQQAQARQQVAQQLRNQQQQQQQQQQQQRRQLTPQQQQLVNQMKVAPIPKQLLQRIPNIPPNINTWQQVTALAQQKLLTPQDMEAAKEVYKIHQQLLFKARLQQQQAQAQAQANNNNNGLPQNGNINNNINIPQQQQMQPPNSSANNNPLQQQSSQNTVPNVLNQINQIFSPEEQRSLLQEAIETCKNFEKTQLGSTMTEPVKQSFIRKYINQKALRKIQALRDVKNNNNANNNGSNLQRAQNVPMNIIQQQQQQNTNNNDTIATSATPNAAAFSQQQNASSKLYQMQQQQQAQAQAQAQAQAQAQAQAQAQAAQAAQAQAQAQAQAQAQAQAQAQAQAQAQAQAQAQAQAHAQHQPSQQPQQAQQQPNPLHGLTPTAKDVEVIKQLSLDASKTNLRLTDVTNSLSNEEKEKIKMKLKQGQKLFVQVSNFAPQVYIITKNENFLKEVFQLRIFVKEILEKCAEGIFVVKLDTVDRLIIKYQKYWESMRIQILRRQAILRQQQQMANNNGNPGTTSTGNNNNIATQQNMQQSLQQMQHLQQLKMQQQQQQQQQQQQQQQQQQQQQQQHIYPSSTPGVANYSAMANAPGNNIPYMNHKNTSSMDFLNSMENTPKVPVSAAATPSLNKTINGKVNGRTKSNTIPVTSIPSTNKKLSISNAASQQPTPRSASNTAKSTPNTNPSPLKTQTKNGTPNPNNMKTVQSPMGAQPSYNSAIIENAFRKEELLLKDLEIRKLEISSRFKHRQEIFKDSPMDLFMSTLGDCLGIKDEEMLTSCTIPKAVVDHINGSGKRKPTKAAQRARDQDSIDISIKDNKLVMKSKFNKSNRSYSIALSNVAAIFKGIGGNFKDLSTLVHSSSPSTSSNMDVGNPRKRKASVLEISPQDSIASVLSPDSNIMSDSKKIKVDSPDDPFMTKSGATTSEKQEVTNEAPFLTSGTSSEQFNVWDWNNWTSAT
notes: Med15 (Gal11), S. cerevisiae, endogenous; source: endogenous, S. cerevisiae CB010 double-tagged strain; within the purified native holoenzyme

binding result [1]: binds
B5: Med2, Mediator Tail module subunit (natural protein, S. cerevisiae, UniProt Q12124 1-431, looked up)
chain: MVVQNSPVSSVHTANFSERGSNTRTMTYKNKLTVCFDDILKVGAEMMMQQQLKNVQLDSYLVNGFSQSQQKLLKEKVKLFHGILDDLETSLSQSSSYLETLTALGKEKEKEREEAEKKRAEQENMRKVREQEELKKRQELEEASQQQQLQQNSKEKNGLGLNFSTTAPANTTDANGSKENYQELGSLQSSSQTQLENANAANNGAAFSPLTTTRIQSQQAQPSDVMFNDLNSMDISMFSGLDSTGFDSTAFNATVDETKGFDDNDSGNNYNDINISSIENNINNNINSTKNGKDNNNESNKNNNGDEKNKNNNEDNENNNNSSEKNNNNNNNNNNNNDDNGNNNNNNSGNDNNNTTNNDSNNKNNSITTGNDNENIVNNDLPTTVVSNPGDNPPPADNGEEYLTLNDFNDLNIDWSTTGDNGELDLSGFNI
notes: Med2, S. cerevisiae, endogenous; source: endogenous, S. cerevisiae CB010 double-tagged strain; within the purified native holoenzyme

Source: PMC4631838, “Molecular architecture of the yeast Mediator complex” (eLife, 2015)
